From patent publication US20030219853

Legend:
[1] = biological target: recombinant serum albumin (UniProt P02768)
[2] = system: histone H3 protein
[3] = biological target: T1, β-casein (UniProt P02666)
T1 sequence: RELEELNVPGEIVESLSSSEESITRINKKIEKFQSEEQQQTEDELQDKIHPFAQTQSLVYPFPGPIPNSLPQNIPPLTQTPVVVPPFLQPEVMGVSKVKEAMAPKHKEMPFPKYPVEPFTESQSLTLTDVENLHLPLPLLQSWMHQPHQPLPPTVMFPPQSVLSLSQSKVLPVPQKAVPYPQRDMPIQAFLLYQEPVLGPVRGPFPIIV

[4] = biological target: ovalbumin (UniProt P01012)
[5] = biological target: bovine serum albumin (BSA) (UniProt P02769)
[6] = system: BSA5 peptide

Chain of bovine serum albumin (BSA) (P02769 25-607): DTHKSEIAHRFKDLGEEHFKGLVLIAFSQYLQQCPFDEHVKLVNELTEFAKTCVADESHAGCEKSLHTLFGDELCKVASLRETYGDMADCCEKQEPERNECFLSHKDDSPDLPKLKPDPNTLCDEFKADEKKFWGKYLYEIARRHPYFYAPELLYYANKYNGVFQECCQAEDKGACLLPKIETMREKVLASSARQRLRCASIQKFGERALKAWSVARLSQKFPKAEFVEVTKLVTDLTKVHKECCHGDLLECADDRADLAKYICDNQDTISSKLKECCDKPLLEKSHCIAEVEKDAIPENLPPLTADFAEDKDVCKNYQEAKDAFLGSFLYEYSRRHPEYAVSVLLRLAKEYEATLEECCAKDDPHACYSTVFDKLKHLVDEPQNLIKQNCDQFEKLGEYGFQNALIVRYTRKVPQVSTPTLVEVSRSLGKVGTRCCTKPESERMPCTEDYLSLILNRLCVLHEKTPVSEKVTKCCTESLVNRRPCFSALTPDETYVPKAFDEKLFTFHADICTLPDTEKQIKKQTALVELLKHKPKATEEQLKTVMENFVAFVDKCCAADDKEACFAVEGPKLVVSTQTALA
Chain of ovalbumin (P01012 2-386): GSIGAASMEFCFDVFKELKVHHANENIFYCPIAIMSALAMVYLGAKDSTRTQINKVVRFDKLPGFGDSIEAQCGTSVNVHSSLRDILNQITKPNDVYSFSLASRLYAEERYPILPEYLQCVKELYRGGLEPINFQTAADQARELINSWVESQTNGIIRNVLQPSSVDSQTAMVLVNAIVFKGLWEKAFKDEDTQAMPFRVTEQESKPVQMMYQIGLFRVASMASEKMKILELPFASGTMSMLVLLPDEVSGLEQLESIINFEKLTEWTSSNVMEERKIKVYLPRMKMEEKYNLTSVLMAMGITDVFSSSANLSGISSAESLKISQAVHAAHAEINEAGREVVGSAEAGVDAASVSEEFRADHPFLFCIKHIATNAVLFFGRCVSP

B1: recombinant 6x-His-TGase fusion protein of Streptomyces mobaraensis ATCC 29032 (enzyme, UniProt P81453 77-407, looked up)
Protein-glutamine gamma-glutamyltransferase: DSDDRVTPPAEPLDRMPDPYRPSYGRAETVVNNYIRKWQQVYSHRDGRKQQMTEEQREWLSYGCVGVTWVNSGQYPTNRLAFASFDEDRFKNELKNGRPRSGETRAEFEGRVAKESFDEEKGFQRAREVASVMNRALENAHDESAYLDNLKKELANGNDALRNEDARSPFYSALRNTPSFKERNGGNHDPSRMKAVIYSKHFWSGQDRSSSADKRKYGDPDAFRPAPGTGLVDMSRDRNIPRSPTSPGEGFVNFDYGWFGAQTEADADKTVWTHGNHYHAPNGSLGAMHVYESKFRNWSEGYSDFDRGAYVITFIPKSWNTAPDKVKQGWP
modifications: N-terminal 6xHis tag
[1]
  cross-linking of recombinant serum albumin on SDS-PAGE: the cross-linking reaction containing recombinant serum albumin revealed a mixture of very high molecular weight polymers of different length
[2]
  cross-linking on SDS-PAGE, native and modified (denatured, dialyzed) protein: only the reactions containing the modified protein species of BSA, histine H3 protein, glucose oxidase, and ovalbumin were cross-linked by the purified recombinant SM TGase; complete and partial cross-linking was both observed for native histine H3 protein
[3]
  cross-linking of a mixture of β-casein and glucose oxidase on SDS-PAGE: both protein species can be cross-linked by the purified recombinant SM TGase, as indicated by the disappearance of the two monomer bands
  cross-linking of β-casein on SDS-PAGE: the cross-linked (CL) β-casein migrated as a smear on the SDS-PAGE gel indicating a mixture of high molecular weight polymers of different length
  cross-linking of β-casein on SDS-PAGE, 0 mM DTT: in the absence of DTT (lane 1 and 2), the recombinant SM TGase had no cross-linking activity on β-casein and β-casein runs as a monomer
  cross-linking of β-casein on SDS-PAGE, about 2 mM DTT: the recombinant SM TGase was activated and β-casein run as a mixture of cross-linked polymer and monomer
  cross-linking of β-casein on SDS-PAGE, about 10 mM DTT: the catalytic cross-linking activity of SM TGase resulted in cross-linking of all detectable β-casein substrates in the reaction
[4]
  cross-linking on SDS-PAGE, native and modified (denatured, dialyzed) protein: only the reactions containing the modified protein species of BSA, histine H3 protein, glucose oxidase, and ovalbumin were cross-linked by the purified recombinant SM TGase
[5]
  cross-linking on SDS-PAGE, native and modified (denatured, dialyzed) protein: only the reactions containing the modified protein species of BSA, histine H3 protein, glucose oxidase, and ovalbumin were cross-linked by the purified recombinant SM TGase
[6]
  cross-linking of BSA5 peptide on SDS-PAGE: increased amount of recombinant SM TGase corresponding to an increase in cross-linked (CL) BSA5 peptide, which run as a large molecular weight polymer on the top of the separating gel
